According to patent publication US20220144916A1 (University of Texas, published 2022):

T1: HCMV viral Fcγ receptor gp34 (residues 24-182), soluble, strep and FLAG tags (human cytomegalovirus AD169, UniProt P16809 24-182)
T1 construct: range 24-182
T1 sequence: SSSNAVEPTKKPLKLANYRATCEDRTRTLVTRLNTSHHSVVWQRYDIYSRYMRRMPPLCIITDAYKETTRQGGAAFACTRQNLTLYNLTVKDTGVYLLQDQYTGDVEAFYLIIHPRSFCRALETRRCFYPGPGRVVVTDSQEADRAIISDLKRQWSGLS


Tests used:
[1] = target: T1, HCMV viral Fcγ receptor gp34 (residues …); assay: flow cytometry, yeast display of human IgG1 Fc, Gp34 plus anti-FLAG PE
[2] = target: T2, human FcγRIIIA, FLAG-tagged (human, UniProt P08637 17-208); assay: flow cytometry, yeast display of human IgG1 Fc, FcgR3A labeled with PE
T2 construct: also called FcgRIIIa; FcγIIIA

human FcRn, FLAG-tagged = human FcRn, FLAG-tagged (human, UniProt P55899 24-297; P61769 21-119); assay: flow cytometry, yeast display of human IgG1 Fc, FcRn at low pH, PE detection
human FcRn, FLAG-tagged, sequence (P55899 24-297 limits assumed, chain 1 of 2): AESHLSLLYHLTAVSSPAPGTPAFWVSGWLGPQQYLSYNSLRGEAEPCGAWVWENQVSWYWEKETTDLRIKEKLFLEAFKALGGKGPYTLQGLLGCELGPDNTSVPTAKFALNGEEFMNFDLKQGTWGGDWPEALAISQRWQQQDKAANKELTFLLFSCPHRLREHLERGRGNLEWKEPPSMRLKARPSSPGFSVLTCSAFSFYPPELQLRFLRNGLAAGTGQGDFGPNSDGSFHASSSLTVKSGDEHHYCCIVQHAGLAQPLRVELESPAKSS
human FcRn, FLAG-tagged, sequence (P61769 21-119 limits assumed, chain 2 of 2): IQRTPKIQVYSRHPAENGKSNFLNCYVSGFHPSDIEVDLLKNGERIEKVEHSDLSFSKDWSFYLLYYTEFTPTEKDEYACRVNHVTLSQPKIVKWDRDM

T2 sequence (P08637 17-208 limits assumed): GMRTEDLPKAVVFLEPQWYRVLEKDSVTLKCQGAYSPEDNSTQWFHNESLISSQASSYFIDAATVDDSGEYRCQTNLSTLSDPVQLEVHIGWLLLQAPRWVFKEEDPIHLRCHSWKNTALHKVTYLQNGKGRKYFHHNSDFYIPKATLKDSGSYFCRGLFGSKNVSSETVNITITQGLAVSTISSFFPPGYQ

Binder | binding result [1] | number printed in the receptor-PE gate (share of yeast cells; unit not given) [2] | number printed in the receptor-PE gate (share of yeast cells; unit not given) (human FcRn, FLAG-tagged)
3S-13 (other, member of group m65; also called gp34 escape variant 3S-13 of human IgG1 Fc, K334E, K338I) human IgG1 Fc displayed on yeast as an Aga-2 fusion protein: CDKTHTCPPCPAPELLGGPSVFLFPPKPKDTLMISRTPEVTCVVVDVSHEDPEVKFNWYVDGVEVHNAKTKPREEQYNSTYRVVSVLTVLHQDWLNGKEYKCKVSNKALPAPIEETISIAKGQPREPQVYTLPP | no binding | 43.4 | –
3S-12 (other, member of group m65; also called gp34 escape variant 3S-12 of human IgG1 Fc, S337F, E345K, T350I) human IgG1 Fc displayed on yeast as an Aga-2 fusion protein: CDKTHTCPPCPAPELLGGPSVFLFPPKPKDTLMISRTPEVTCVVVDVSHEDPEVKFNWYVDGVEVHNAKTKPREEQYNSTYRVVSVLTVLHQDWLNGKEYKCKVSNKALPAPIEKTIFKAKGQPRKPQVYILPPSRDELTKNQVSLTCLVKGFYPSDIAVEWESNGQPENNYKTTPPVLDSDGSFFLYSKLTVDKSRWQQGNVFSCSVMHEALHNHYTQKSLSLSPGK | no binding | 39.9 | –
4-7 (other, also called gp34 escape variant 4-7 of human IgG1 Fc, H268L, E294K, Q311L, K334E) human IgG1 Fc displayed on yeast as an Aga-2 fusion protein: CDKTHTCPPCPAPELLGGPSVFLFPPKPKDTLMISRTPEVTCVVVDVSLEDPEVKFNWYVDGVEVHNAKTKPREKQYNSTYRVVSVLTVLHLDWLNGKEYKCKVSNKALPAPIEETISKAKGQPREPQVYTLPPSRDELTKNQVSLTCLVKGFYPSDIAVEWESNGQPENNYKTTPPVLDSDGSFFLYSKLTVDKSRWQQGNVFSCSVMHEALHNHYTQKSLSLSPGK | no binding | 54.2 | 34.3
